Experimental data taken from patent CN116981688A (HELMHOLTZ ZENTRUM MUENCHEN DEUTSCHES FORSCHUNGSZENTRUM FUR …, dated 2023).

T1: 人PRDX4 (存在于癌细胞的细胞表面上) (human) (UniProt Q13162)
T1 sequence: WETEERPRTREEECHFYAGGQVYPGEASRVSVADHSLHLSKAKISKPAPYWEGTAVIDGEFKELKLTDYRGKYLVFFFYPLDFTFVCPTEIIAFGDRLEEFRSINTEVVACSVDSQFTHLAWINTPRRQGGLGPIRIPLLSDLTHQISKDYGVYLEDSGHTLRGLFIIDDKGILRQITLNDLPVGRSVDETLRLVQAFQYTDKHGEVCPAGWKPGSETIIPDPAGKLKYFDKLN

T2: PRDX4 (内源性, 细胞裂解物中) (human, UniProt Q13162 38-271)
T2 construct: Endogenous PRDX4 in RIPA lysates of human cell lines (ES-2 and others), precipitated with 11F2 beads; also called 内源性PRDX4
T2 sequence: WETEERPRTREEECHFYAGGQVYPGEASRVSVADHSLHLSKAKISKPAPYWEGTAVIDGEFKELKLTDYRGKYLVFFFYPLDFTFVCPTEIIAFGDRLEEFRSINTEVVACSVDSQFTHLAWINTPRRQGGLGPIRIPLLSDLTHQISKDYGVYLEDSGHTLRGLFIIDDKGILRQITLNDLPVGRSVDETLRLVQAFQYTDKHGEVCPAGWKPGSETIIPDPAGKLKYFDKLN


Tests used:
[1] = target: T1, 人PRDX4 (存在于癌细胞的细胞表面上) (human); assay: flow cytometry on ES-2 cells, isotype control
[2] = target: T1, 人PRDX4 (存在于癌细胞的细胞表面上) (human); assay: flow cytometry on ES-2w cells transfected with control siRNA
PRDX4 (内源性, 细胞裂解物中) = target: T2, PRDX4 (内源性, 细胞裂解物中); assay: immunoprecipitation with 11F2 beads from ES-2 lysate, western blot
[3] = target: T1, 人PRDX4 (存在于癌细胞的细胞表面上) (human); assay: flow cytometry on ES-2 cells transfected with PRDX4-specific siRNA (population 4BC_KO)
[4] = target: T1, 人PRDX4 (存在于癌细胞的细胞表面上) (human); assay: flow cytometry on ES-2 cells with PRDX4-specific siRNA (4BC_KO) against control siRNA cells

| 平均值 (mean fluorescence) [1] | 平均值 (mean fluorescence) [2] | binding result (PRDX4 (内源性, 细胞裂解物中)) | 平均值 (mean fluorescence) [3] | percent of 11F2 binding against control siRNA cells [4] [%] | Molecule |
| --- | --- | --- | --- | --- | --- |
| 159 | – | – | – | – | 同种型抗体 (antibody) |
| – | 1910 | binds | 874 | 50 | 抗体11F2 (antibody, V domains shown, Monoclonal antibody detected with goat anti-rat IgG secondary antibody, so rat constant regions; also called PRDX4特异性抗体11F2; PRDX4抗体11F2) VH: QVQLQQSGAELVKPGTSVKLSCKASGYTFSTHHMHWIKETTGQGLEWIGIINPGNGGTKYNVKFKGKATLTVDSSSSTAFMQLGSLTPEDSAVYYCARGNPASFDYWGQGVMVTVSS VL: DIQMTQSPSFLSASVGDRVTINCKASQNIYKYLNWYQQKLGEAPKRLIYNTNNLETDIPSRFSGSGSGTDYTFTISSLQPEDFATYFCLQHSNFPFTFGSGTKLEIKR |
